Experimental findings from doi:10.1101/2020.12.02.407882 are described below.

Test [1] has as its target 1G4 TCR, wild type (TCRαβ with HA-tagged β). The test is described as follows: co-IP.
For test [2], the target named is 1G4 TCR carrying βA291 (TCRαβ with HA-tagged β Y291A). Nature of the test: co-IP.
Test [3] deals with QM-α TCR (1G4 variant with mutations in αCDR2, βCDR2 and βCDR3; TCRαβ with HA-tagged β). The test is described as follows: pull-down.

Regarding “CD3ζ carrying ζA38 (I38A), expressed in J76-1G4WT-ζKO (from UniProt P20963-1 22-164) (natural protein)”, the ζ/β2 ratio against ζWT (ratio, ζWT = 1) in test [1] was determined as 0.05.
Regarding “CD3δ, endogenous in J76 Jurkat cells (from UniProt P04234 22-171) (natural protein)”, the reduction of recovery (δ/βT) against 1G4-WT in test [2] is 10%.
With “CD3ζ carrying ζA41 (I41A), expressed in J76-1G4WT-ζKO (from UniProt P20963-1 22-164) (natural protein)”, the ζ/β2 ratio against ζWT (ratio, ζWT = 1) in test [1] amounted to 0.25.
As for “CD3ζ (ζζ dimer), endogenous in J76 Jurkat cells (from UniProt P20963-1 22-164) (natural protein)”, in test [2], the ζ/β2 ratio against 1G4-WT (ratio, 1G4-WT = 1) was 0.2. Also, the reduction of ζ/β2 ratio, (9V-A2)4-His-bound against unliganded QM-α in test [3] was found to be 40%.
With “CD3ε, endogenous in J76 Jurkat cells (from UniProt P07766 23-207) (natural protein)”, in test [2], the ε/βT ratio against 1G4-WT (ratio, 1G4-WT = 1) came to 0.5.
“CD3γ, endogenous in J76 Jurkat cells (from UniProt P09693 23-182) (natural protein)” had a reduction of recovery (γ/βT) against 1G4-WT in test [2] of 40%.
